Measured values reported in patent US8003609B2, “Method for ameliorating pain by modification of NMDA receptors through inhibition of Src” (The Hospital for Sick Children, priority 2004, dated 2011).

Key:
[1] = target: T1, ND2 association with NMDAR complexes (Rattus norvegicus, UniProt P11662); assay: co-immunoprecipitation of ND2 with NMDARs from PSD proteins; format: binding
T1 construct: from tissue; host or cells: rat brain post-synaptic density fraction
Method: (§1) Detailed protocols for in vitro binding assays, pull down assays, immunoblotting, and co-immunoprecipitation techniques can be found in Pelkey et al. (Neuron 34:127-138 2002).
(§2) Post-synaptic density proteins (Kennedy et al. Proceedings of the National Academy of Science USA 80:7357-7361 1983) were prepared from rat brain as described in detail (Pelkey et al. Neuron 34:127-138 2002). Cellular fractionation of rat brain tissue into nuclear, heavy mitochondrial, light mitochondrial, microsomal, and cytosolic fractions was performed by differential centrifugation of tissue homogenate in 0.25 M sucrose/10 mM HEPES-NaOH, 1 mM EDTA, pH 7.4 with 2 μg each of aprotinin, pepstatin A, and leupeptin (Sigma, St. Louis, Mo.) at 4° C. Nuclei were pelleted by centrifugation at 1 000 g for 10 minutes, the supernatant was removed and spun at 3 000 g for 10 minutes to obtain a heavy mitochondrial pellet. The supernatant was removed and spun at 16 000 g for 15 minutes to obtain a light mitochondrial pellet. The supernatant was removed and spun at 100 000 g for 1 hour to obtain a microsomal pellet and the cytosolic fraction. All pellets were then resuspended in RIPA buffer (50 mM Tris pH 7.6, 150 mM NaCl, 1 mM EDTA, 1% NP-40, 2.5 mg/ml NaDOC, 1 mM Na3VO4 1 mM PMSF, and 2 μg/ml each of protease inhibitors). The light mitochondrial fraction was used in subsequent experiments. […]

[2] = target: T2, interaction between Src and ND2 (Rattus norvegicus, UniProt P11662); assay: co-immunoprecipitation of ND2 by anti-Src from PSD proteins; format: binding; details: PSD proteins incubated with peptide
T2 construct: from tissue; host or cells: rat brain post-synaptic density fraction
T2 sequence (P11662 1-346): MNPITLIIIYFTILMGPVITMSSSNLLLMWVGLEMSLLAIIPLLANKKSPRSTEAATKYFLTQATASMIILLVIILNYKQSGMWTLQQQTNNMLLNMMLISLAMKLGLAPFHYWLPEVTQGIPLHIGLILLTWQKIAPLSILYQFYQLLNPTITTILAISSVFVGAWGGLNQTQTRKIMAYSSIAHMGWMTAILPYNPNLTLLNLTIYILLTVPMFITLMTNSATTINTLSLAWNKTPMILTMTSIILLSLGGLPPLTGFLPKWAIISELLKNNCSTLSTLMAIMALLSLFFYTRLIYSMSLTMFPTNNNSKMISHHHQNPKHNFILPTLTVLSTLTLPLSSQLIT
Method: as §1, §2

[3] = target: T3, association of Src with the NMDAR complexes (Rattus norvegicus, UniProt P11662); assay: co-immunoprecipitation of Src with NMDARs from PSD proteins; format: binding
T3 construct: from tissue; host or cells: rat brain post-synaptic density fraction
Method: as §1, §2

AMPA receptor = assay: mEPSC whole cell recordings in cultured hippocampal neurons, AMPA receptor component; format: cell-based, rat; details: under the recording conditions used
Method: Fetal rat hippocampal neurons were prepared, cultured, and used for electrophysiological recordings 12-17 days after plating. Methods for whole cell recordings are described in Pelkey et al. (Neuron 34:127-138 2002).
In contrast, in control experiments administering EPQ(pY)EEIPIA (SEQ ID NO:5) increased the NMDAR component of mEPSCs by 172±28% and application of Src40-58 decreased the NMDAR component to 56±4% (FIGS. 5D-F). […] Composite traces are shown in black, the NMDAR component in dark grey, and the AMPAR component in light grey. Scale bars are 50 ms/10 pA. […] NMDA component data were calculated as Q20′/Q2′, and AMPA component data were calculated as A20′/A2′. […] An * indicates a significant difference, Student's t-test, p<0.05. Taking our results together, it is concluded that Src-dependent regulation of the activity of NMDARs depends on expression of ND2 through its anchoring of Src to the NMDAR complex.

ND2.2-GST = target: T4, ND2.2-GST (Homo sapiens, UniProt P03891); assay: dot blot of biotinylated Src peptides on ND2.2-GST; format: binding; details: biotinylated peptide
T4 construct: amino acids 189-238 (ND2.2-GST); made in house; host or cells: bacteria
T4 sequence (P03891 189-238): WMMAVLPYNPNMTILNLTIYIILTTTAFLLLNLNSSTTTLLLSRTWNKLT
Method: Src, Fyn, and ND2 recombinant proteins were prepared. The cDNAs encoding the SH3 and SH2 domains of mouse n-Src and Fyn were PCR subcloned, ligated in frame into pGEX4T-1 (Amersham Pharmacia Biotech, Baie d'Urfé, Québec), and sequenced. These plasmids, as well as plasmids encoding the unique domains of Src and Fyn in pGEX2T'6, were transformed into BL21 bacteria, and GST fusion proteins were purified by glutathione affinity chromatography. To create the ND2.1, ND2.2, and ND2.3 GST fusion proteins, cDNAs encoding amino acids 239-321 (ND2.1-GST; SEQ ID NO:7), amino acids 189-238 (ND2.2-GST; SEQ ID NO:11), and amino acids 1-188 (ND2.3-GST; SEQ ID NO:13) of human ND2 were PCR subcloned and ligated into pGEX4T-1 (the nucleotide sequence encoding ND2 is SEQ ID NO:8 and the amino acid sequence is SEQ ID NO:9; the nucleotide sequences encoding ND2.1; ND2.2 and ND2.3 are SEQ ID NOS:6, 10 and 12, respectively). Using PCR-based single nucleotide mutagenesis, all cDNAs encoding ND2 fusion proteins were corrected for differences between mitochondrial and nuclear codons to prevent premature translation termination and protein truncation. […]
Src40-58 and scrambled Src peptides were biotinylated by incubating with Sulfo-NHS-Biotin (Pierce Chemical Co., Rockford, Ill.) for 30 minutes at room temperature (SEQ ID NO:4, Src protein). […] Bound probe was then detected on film using an ECL kit.

Substance: Src40-58: peptide comprising amino acid residues 40-58 of SEQ ID NO:4 (Src) (PASADGHRGPSAAFAPAAA; listed as Homo sapiens)
- co-immunoprecipitation of ND2 with NMDARs [1]: not affected
- co-immunoprecipitation of ND2 by anti-Src [2]: prevented
- immunoprecipitation of Src from PSDs [2]: did not affect
- co-immunoprecipitation of Src with NMDARs [3]: suppressed
- AMPA receptor component of the mEPSCs (AMPA receptor): neither of these reagents affected
- binding to ND2.2-GST (ND2.2-GST): Neither Src40-58 nor scrambled Src40-58 bound
